# From publication PMC4132743 (Nucleic Acids Research, 2014)
# Molecular target: T1, DnaT Y127A/W128A (Escherichia coli K12, UniProt P0A8J2 1-179, Y127A;W128A)
# T1 sequence: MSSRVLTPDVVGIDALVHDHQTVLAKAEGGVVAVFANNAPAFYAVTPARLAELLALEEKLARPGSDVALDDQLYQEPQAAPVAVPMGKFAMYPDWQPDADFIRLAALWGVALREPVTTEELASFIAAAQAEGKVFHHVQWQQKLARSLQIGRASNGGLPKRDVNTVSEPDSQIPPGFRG
# Test: fluorescence polarization; almost no detectable binding; Buffer A: 20 mM Tris-HCl pH 7.5, 40 mM NaCl, 5% v/v glycerol, 20 C; FPA 200 nM 5'-FAM DNA, Hill fit; EMSA 30 min at 20 C, gels in 0.5x TBE at 4 C
# Conditions: protein: recombinant; tags: His-MBP removed by TEV; label: 5'-FAM
binder,measurement,value
TTTTTTTTTTTTTTTTTTTTTTTTTTTTTT (ssDNA) [5F-dT30],binding result,no binding
